Results published in the nanobody polyreactivity screen of Harvey et al. (2022).

Assay: yeast display, Sf9 membrane polyspecificity reagent, FACS + sequencing; frameworks hold sequencing errors
Summary of the method: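 Polyreactivity labels are assigned by the sorting gate from which each nanobody was recovered. The gates were low and high (top ~1%), set on anti-HA fluorescence for expression and streptavidin fluorescence for reagent binding. Before sorting, galactose-induced (36–48 hours) yeast display cells were stained for 1 hour at 4 °C with 10% biotinylated, detergent-solubilized Sf9 membrane reagent.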

Sequence | polyreactivity (PSR sort gate)
QVQLVESGGGLVQAGGSLRLSCAASGLIFYGNAMGWYRQAPVKERELVAAISRRGGRTYYADSVKGRFTISRDNAKNTVYLQMNSLKPEDTAVYYCAAGVPKNGQAGYDYWGQGTQVTVSS | high polyreactivity
QVQLVESGGGLVQAGGSLRLSCAASGFIFYKYAMGWYRQAPGKERELVAAITRRGGSTYYADSVKGRFTISRDNAKNTVYLQMNSLKPEDTAVYYCAKYIYGYKDSPLGDDYWGQGTQVTVSS | high polyreactivity
QVQLVESGGGLVQAVGSLRLSCAASGRIFVYNAMGWYRQAPGKERELVASITSSGGSTYYADSVKGRFTISRDNAKNTFYLQMNSLKPEDTAVYYCAADVQPDTRSTPEMDYWGQGTQVTVSS | low polyreactivity
QVQLVESGGGLVHAGGSLRLSCAASGFTFSYNARGWYRQAPGKERELVASITRSGGRTYYADSVKGRFTISRDNAKNTVYLQMNSLKPEDTGVYYCAAVWYPWLSSIFDYWGQGTQVTVSS | high polyreactivity
QVHLEESGGGLVQAGGSLRLSCAASGFIFNAYAMGWYRQAPGKERELVAAISSSGGRTYYADSVKGRFTISRDNAKNTVYLQMNSLKPEVTAVYYCNTYRYYQYYRSMDYWGQGTQVTVSS | high polyreactivity
QVQLVESGGGLVQAGGSLRLSCAASGSIFLVYAMGWYRQAPGKERELVAAISQRVGRTYYADSVKGRFTISRDNAKNTVYLQMNSLKPEDTAVYYCNARVYDPTRGFNYWGQGTQVTVSS | high polyreactivity
QGQLVESGGGLVQAGGSLRLSCAASGGIFVGYPMGWYRQAPGKERELVASSDVRVGSTYYGDSVKGRFTISRDKAKNTVYLQMTSLKPEDTAVYSCEAGGRAVRIYWGYYRTSYDYWGLGTQVTVSS | low polyreactivity
QVQLVESGGGLVQAGGSLRLSCAASGSIFGAYAMGWYRQAPGKERELVAAISGSGTSTYYADSVKGRFTISRDNAKNTVYLQMNSLKPEDTAVYYCATAKLTWRSQGLDYWGQGTQVTVSS | low polyreactivity
QVQLVESGGGLVQAGGRLRLSCDASGSTFVKYAMGWYRQAPGKERELVARISSSGGSTYYADSVKGRFTISRDNAKNTVFLQMNSLKPEDTAVYYCAAPSLIAKYDYWGQGTHVTVSS | high polyreactivity
QVQLVESGGGLVQAGGSLRLSCAASGFNFARNTMGWYRQAPGKERELVAAISSSGGSTYYADSVKGRFTISRDNAKNTVYLQMNSLKPEDTAVYYCNKGYTGLYGYDYWGQGTQVTVSS | high polyreactivity
QVQLVESGGGLVQAGGSLRLSCAASGLTFSYYAMGWYRPAPGKERELVAAITSSGGNTYYADSVKGRFTISRDYAKNTVYLQMNSLKPEDTAGDSCTARRYLRGYGYGYWGQGTQVTVSS | high polyreactivity
QVQLVESGGGLVQAGGSLRLSCAASGIIFAYYARRWYRHAPGKERELVAAISWSGTSTYYADSVKGRFTISRDNAKNTVYLQMNSLKPEDTAVYYCNAYGLYSDMDYWGQGTQVTVSS | high polyreactivity
QVQLVESGGGLVQAGGSLRLSCAASGRTFTFNAMGWYRQAPGKERELVAAITRSGGRTYYADSVKGRFTISRDNAKNTVYLQMNSLKPEDTAVYYCAAEWEYSWYDYDYWGQGTQVTVSS | high polyreactivity
QVQLVESGGGLVQAGGSLRISCAASGSTFQGNAMGWSRHAPGKERELVAAISRSGGSTYADSVKGRFTISRDNAKNTVYLQMNSLKPEDTAVYYCSADAPFDRPYNYWGQGTQVTVSS | low polyreactivity
QDQLVESGGGLVQAGGSLRLSCAASGFIFSSYAIGWYRQAPGKERELVAAITSGGSTNYADSVKGRFTLSRDNAKNTVYLQMNSLKPEDTAVYYCATVPGGSWFFHWWSTGGDDEYWGQGTQVTVSS | low polyreactivity
QVQLVESGGGLVQAGGSLRLSCAASGITFTYYAMGWYRQAPGKERELVASITIGGGSTYYADSVKGRFTISRDNAKKTVYLQLNSLKPEYTAVYYCNAAFSVRHLYRYDYWGQGTQVTVSL | low polyreactivity
QVQRVESGGGLVQAGGSLRLSCAASGSIFAVYAMGWYRQAPGNERELVAAINRSGDSTYFADSVKGRFTISRDNAKNTVYLQMKSLKPEDTAVYYCAADWYWWYTRSWVDYWGQGTQVTVSS | high polyreactivity
QVQLVESGGGLVQAGGSLRLSCAASGLIFKYNVMGWYRQAPGKERELVAAITWGGTRTYYADSVKGRFTISRDNAKNTVYLQMNSLKPEDTAVYYCAVRSARIERNYWGQGTQVTVSS | low polyreactivity
QVQLQESAGGLVQAGGSLRLRCSASGYISCDASMGWYRQAAGKERELAASITKGSSTNYADSVKGRFTIRDNAKNTVYLQMNSLKPEDTAVCYCAVTYPYWGDYTYWGQGTQVTVSS | low polyreactivity
QVQHVESGGGLVQAGGSLRLSCAASGFIFPTYAMGWYRQAPGKERELVATITTNAGGTHYADSVKGRFTISRDNAKNTVYLQMNSLKPEDTAVYYCAAKQYRPKQRKYWTRIYDYWGQGTQVTVSS | low polyreactivity
QVQLVESGGGLVQAGGSLRLSCAASGRTFGFYAMGWYRQAPGKERELVAGINNRGSGTYYADSVKGRFTISRDNAKNTVYLLMNSLKPEDTAVYYCAAGRRAKSRTWVNIRYDYWGQGTQVTVST | high polyreactivity
QGQLVESGPVLVQAGCSLRLSSAASGYTFGWYAMGWYRQAPGKLRELVAGISSAGSTNYADSVNGRFTISRDNANINVYLQMNSLKPEDTAVYYCAAEVRYWFLADDYWGQGTQVTVSS | high polyreactivity

Sequence | polyreactivity (PSR sort gate)
QVQLVESGGGLVQAGGSLRLSCAASGFTFGSNTMGWYRQAPGKERELVAAITYTGGRTYYADSVKGRFTISRDNAKNTVYLQMNSLKPEDTAVYYCAAEYHFWSYSPGYDYWGQGTQVTVSS | high polyreactivity
QVQLVESGGALVLAGGSLRLSCAASGFTFQYYAMGWYRQAPGKERELVAAIDWTGGSTYYADSVKGRFTISRDNAKNTVYLQMNSLKPEDTAVYFCNRELTSPRRWHVSRAYDYWGQGTQVTVSS | low polyreactivity
QVQHVESGGGLVQAGGSLRLSCAASGSILGGNAMGWYRQAPGKERELVADISGSGDSTYYADSVKGRFTISRDNAKNTVYLQMNSLKPEETAVYYCAVDYDSYWYGTYVNEYDYWGQGTQVTVSS | low polyreactivity
QVQLVESGGGLVQAGGSLRLSCAASGFIFENNAKGWYRQAPGKERELVAGITSGGGSTYYADSVKGRFTISRDNAKNTVYLQMNSLKPEDTAVYYFNKLYTRVGFTFEYWGQGTQVNVSS | low polyreactivity
QVQLVESGVGLVQAGGSHRLSCSASGSIIEENSMGWYRQAPGKERELVAAITIGGRTNYADSVKGRFTISRDNAKNTVYLQMNSLKPEDTAVYYCAADLSSNKYFRFWTRYYYWGQGTQVTVSS | low polyreactivity
QVQLVESGGGLVQAGGSLRLTCAASGSTFYYYTMGWYRQAPWKERELVAAITSAGSTHYADSVKGRFTISRDNAKNNVYLQMNSLKPEDTAVYYCAAKSHWWWRGYYYWGQGTQVTVSS | high polyreactivity
QVQLVDSGGGLVQAGGSLRLSCAASGSTVKYAMGWYRQAPGKERELVASIRRSGGSTYYADSVKGRFTISRDNAKITVYLKMNSLNPEDTAVYYCAAPLFRWMDYWGQGTQVTVSS | high polyreactivity
QVQLVESGGGLVQAGGSLRLSCAASGRTFGSNAMGWYRQAPGKERELVAAISGRTDSTYYADSVKGRFTISRDNAKNTVYLQMNSLKPEDTAVFYCAADSGDVLYYYIRYNYWGQGTQVTVSS | low polyreactivity
QVQHVESGGGLVQAGGSLRLSCAASGRIFTTYAMGWYIQAPGKERELVAAISRSGGSTYYADSVKGRFTISRDNAKNTVYLQMNSLKPEDTAVYYCAAVPTSNSFRSSFYYWGQGTQVTVSS | high polyreactivity
QVQLVESGGGLVQAGGSLRLTCAASGRTFRPYDMGWYRQAPGKQRELVATITTNGGSTYYADSVKGRFTISRDNAMNTVYLQMTSLKPEDTAGYYCATDNSWPTYHYDGGYYWGQGTQVTVSS | low polyreactivity
QVQLLDSGGGLVQAGGSLRLSCAASGSTIAYYDMGWYRQAPGKERELVAAISWSGGSTYYADSVKGRFTISRENAKKTVYLQMNSLKPEDTAVYYCNRLLGYFTDSSGSPMGYWGQGTQVTVSS | high polyreactivity
QVQLVESGGGLVQAGGSLRLSCAASGIISRYYAMGWYRQAPGKERELVASISSGVGTNYADSVKGRFTISRDNAKNTVYLQMNSLKPEDTAVYYCAARFRYYRHYYWGQGSQVTVSS | high polyreactivity
QVQLVESGGGLVQAGGSLRLSCAASGRTINPYGMGWYRPAPGKERELVADINSGGITNYADSVKGRFTISRDNAKNTVYLQMNSLKPEDTAVYYCNADGFIQPDDWRNFAGDYWGQGTQVTVSS | low polyreactivity
QVQLVESGGRLVQAGGSLRLSCAASGFTFSSYAMGWYRQAPGKERELVAAISTRCGSTYYADSVKGRFTISRDNAKNTVYLQMNSLKPEDTAVYYCATGCRGGRRYEYWGQGTQVTVSS | low polyreactivity
QVQLVESGGGLVQAGGSLRLSCAASGRTFKYNTMGWYRQAPGKERELVAVISRSGGRTYYADSVKGRFTISRDNAKNTVYLQMNSLKPEDTAVYYCAKGIPYADPQSAYDDYWGQGTQVTVSS | high polyreactivity
QVQLVESGGGLVQAGGSLSLSCAATGSTFWWYAMGWYRQAPGKEREFVAAIRWSSGSTYYADSVKGRFTISRDNAKNTVYLQMNSLKPEDTAVYYCATDDTSNVYVDLDYWGQGTQVTVSS | high polyreactivity
QVQLVESGGGLVQAGGSLRLSCAASGYIFWFNAMGWYRQAPGKERELVAAITSSDASTNYADSVKGRFTISRDNAKNTVYLQMNSLKPEDTAVYYCAKSSYPRDGYESWGQGTQVTVSS | low polyreactivity
QVQLVESGGGLVQAGGILRLSCDASGFTFYYYTMGWYRQAPGKERELVAAISKSGGTTYYADSVKGRFTISRDNAKNTVYLQMNSLKPEDTAVYYCAAKPWVWVYARYGKHPSYDYWGQGTQVTVSS | high polyreactivity
QVQLEQSGGGLVQAGGSLRLSCAASGRTFVSNAMGWYRQAPGKERELVADITSGGSTDYADSVKGRFTISRDNANNTVYLQMNSLKPEDTAVYYCATDLWRWYGWFDYWGQGTQVTVSS | low polyreactivity
QVQLVESGGRLVQAGGSLRLSCAASGGTFRVYAMGWNRQAPGKEIEFVAAISAHGGRTYYADSVKGRFTISRDNAQNTVYLQLNSLKPEDTAVYYFYNRLPNSQDGTSAHYTYYSWGQGTQVTVSS | low polyreactivity
QVQLVESGGGLVQAGGSLRLSCAASGITFYGYDMGWYRQAPGKERELFAAISRSGGSTYYADSVKGRFTISRDNAKNTVYLQMNSLKPEDTAVYYCAADKQGYLGRTAFRYYYWGQGTQVTVSS | high polyreactivity
